± gives the standard deviation of the averaged measurements.
Test: total protein half-life in vivo (active degradation + dilution); higher = more stable protein
[1] = E. coli NCM3722 delta-clpP delta-lon delta-hslV, growth: N-lim chemostat, doubling time 6 h
[2] = E. coli NCM3722 delta-clpP, growth: N-lim chemostat, doubling time 6 h
[3] = E. coli NCM3722 delta-hslV, growth: N-lim chemostat, doubling time 6 h
[4] = E. coli NCM3722 delta-lon, growth: N-lim chemostat, doubling time 6 h
[5] = E. coli NCM3722 delta-smpB, growth: N-lim chemostat, doubling time 6 h
[6] = wild type E. coli NCM3722, growth: C-lim chemostat, doubling time 3 h
[7] = wild type E. coli NCM3722, growth: C-lim chemostat, doubling time 6 h
[8] = wild type E. coli NCM3722, growth: C-lim chemostat, doubling time 12 h
[9] = wild type E. coli NCM3722, growth: N-lim chemostat, doubling time 6 h
[10] = wild type E. coli NCM3722, growth: N-lim chemostat, doubling time 12 h
[11] = wild type E. coli NCM3722, growth: P-lim chemostat, doubling time 6 h
[12] = wild type E. coli NCM3722, growth: P-lim chemostat, doubling time 12 h

| Sequence | total protein half-life in vivo [1] [h] | total protein half-life in vivo [2] [h] | total protein half-life in vivo [3] [h] | total protein half-life in vivo [4] [h] | total protein half-life in vivo [5] [h] | total protein half-life in vivo [6] [h] | total protein half-life in vivo [7] [h] | total protein half-life in vivo [8] [h] | total protein half-life in vivo [9] [h] | total protein half-life in vivo [10] [h] | total protein half-life in vivo [11] [h] | total protein half-life in vivo [12] [h] |
| --- | --- | --- | --- | --- | --- | --- | --- | --- | --- | --- | --- | --- |
| MVTSCTGHVLDNQRATTRGVFSSGSHLVTLHFQPHPFFSCVTDAVNGARSRFSAFYPKANYGLQGSQPSDVRAHNRAANGACDEYKQLKVLSMGRQKAVIKARREAKRVLRRDSRSHKQREEESVTSLVQMGGVEAIGMARDSRDTSPILARNEAQLHYLKAIESKQLIFATGEAGCGKTWISAAKAAEALIHKDVDRIIVTRPVLQADEDLGFLPGDIAEKFAPYFRPVYDVLVRRLGASFMQYCLRPEIGKVEIAPFAYMRGRTFENAVVILDEAQNVTAAQMKMFLTRLGENVTVIVNGDITQCDLPRGVCSGLSDALERFEEDEMVGIVRFGKEDCVRSALCQRTLHAYS [P0A9K1] | 5.82 ± 0.65 | 1.96 ± 0.059 | 0.55 ± 0.47 | 0.666 ± 0.43 | 0.308 ± 0.011 | 0.166 ± 0.058 | 0.347 ± 0.25 | 0.864 | 0.735 ± 0.45 | 0.571 | 0.355 | 1.23 ± 0.8 |
| MTRYQHLATLLAERIEQGLYRHGEKLPSVRSLSQEHGVSISTVQQAYQTLETMKLITPQPRSGYFVAQRKAQPPVPPMTRPVQRPVEITQWDQVLDMLEAHSDSSIVPLSKSTPDVEAPSLKPLWRELSRVVQHNLQTVLGYDLLAGQRVLREQIARLMLDSGSVVTADDIIITSGCHNSMSLALMAVCKPGDIVAVESPCYYGSMQMLRGMGVKVIEIPTDPETGISVEALELALEQWPIKGIILVPNCNNPLGFIMPDARKRAVLSLAQRHDIVIFEDDVYGELATEYPRPRTIHSWDIDGRVLLCSSFSKSIAPGLRVGWVAPGRYHDKLMHMKYAISSFNVPSTQMAAATFVLEGHYHRHIRRMRQIYQRNLALYTCWIREYFPCEICITRPKGGFLLWIELPEQVDMVCVARQLCRMKIQVAAGSIFSASGKYRNCLRINCALPLSETYREALKQIGEAVYRAME | 6.94 ± 1 | 3.72 ± 0.22 | 2.89 |  | 2.79 ± 0.039 | 3.04 ± 0.04 | 4.58 ± 0.076 | 7.69 ± 0.59 | 3.09 ± 0.11 |  | 3.19 ± 0.25 | 6.91 ± 3.5 |
| MRKIVAMAVICLTAASGLTSAYAAQLADDEAGLRIRLKNELRRADKPSAGAGRDIYAWVQGGLLDFNSGYYSNIIGVEGGAYYVYKLGARADMSTRWYLDGDKSFGFALGAVKIKPSENSLLKLGRFGTDYSYGSLPYRIPLMAGSSQRTLPTVSEGALGYWALTPNIDLWGMWRSRVFLWTDSTTGIRDEGVYNSQTGKYDKHRARSFLAASWHDDTSRYSLGASVQKDVSNQIQSILEKSIPLDPNYTLKGELLGFYAQLEGLSRNTSQPNETALVSGQLTWNAPWGSVFGSGGYLRHAMNGAVVDTDIGYPFSLSLDRNREGMQSWQLGVNYRLTPQFTLTFAPIVTRGYESSKRDVRIEGTGILGGMNYRVSEGPLQGMNFFLAADKGREKRDGSTLGDRLNYWDVKMSIQYDFMLK |  |  |  |  |  | 3.55 ± 0.51 | 7.84 | 11.5 ± 2 |  |  |  |  |
| MQKIVIVANGAPYGSESLFNSLRLAIALREQESNLDLRLFLMSDAVTAGLRGQKPGEGYNIQQMLEILTAQNVPVKLCKTCTDGRGISTLPLIDGVEIGTLVELAQWTLSADKVLTF [P0AB52] | 5.73 ± 0.71 | 5.32 ± 0.28 | 4.94 ± 1.6 | 5.96 ± 0.57 | 4.81 ± 0.086 | 2.64 ± 0.25 | 6.4 ± 1.1 | 13.2 ± 0.93 | 5.55 ± 0.19 | 10.1 ± 0.94 | 5.43 | 12.5 ± 1.7 |
| MSYQYVNVVTINKVAVIEFNYGRKLNALSKVFIDDLMQALSDLNRPEIRCIILRAPSGSKVFSAGHDIHELPSGGRDPLSYDDPLRQITRMIQKFPKPIISMVEGSVWGGAFEMIMSSDLIIAASTSTFSMTPVNLGVPYNLVGIHNLTRDAGFHIVKELIFTASPITAQRALAVGILNHVVEVEELEDFTLQMAHHISEKAPLAIAVIKEELRVLGEAHTMNSDEFERIQGMRRAVYDSEDYQEGMNAFLEKRKPNFVGH | 5.13 |  |  |  |  | 2.48 | 2.79 | 6.64 |  |  |  |  |
| MKFDKPAGENPIDQLKVVGRPHDRIDGPLKTTGTARYAYEWHEEAPNAAYGYIVGSAIAKGRLTALDTDAAQKAPGVLAVITASNAGALGKGDKNTARLLGGPTIEHYHQAIALVVAETFEQARAAASLVQAHYRRNKGAYSLADEKQAVNQPPEDTPDKNVGDFDGAFTSAAVKIDATYTTPDQSHMAMEPHASMAVWDGNKLTLWTSNQMIDWCRTDLAKTLKVPVENVRIISPYIGGGFGGKLFLRSDALLAALAARAVKRPVKVMLPRPSIPNNTTHRPATLQHLRIGADQSGKITAISHESWSGNLPGGTPETAVQQSELLYAGANRHTGLRLATLDLPEGNAMRAPGEAPGLMALEIAIDELAEKAGIDPVEFRILNDTQVDPADPTRCFSRRQLIECLRTGADKFGWKQRNATPGQVRDGEWLVGHGVAAGFRNNLLEKSGARVHLEQNGTVTVETDMTDIGTGSYTILAQTAAEMLGVPLEQVAVHLGDSSFPVSAGSGGQWGANTSTSGVYAACMKLREMIASAVGFDPEQSQFADGKITNGTRSATLHEATAGGRLTAEESIEFGTLSKEYQQSTFAGHFVEVGVHSATGEVRVRRMLAVCAAGRILNPKTARSQVIGAMTMGMGAALMEELAVDDRLGYFVNHDMAGYEVPVHADIPKQEVIFLDDTDPISSPMKAKGVGELGLCGVSAAIANAVYNATGIRVRDYPITLDKLLDKLPDVV | 6.02 ± 1.7 | 1.06 |  | 4.29 ± 0.36 |  |  | 6.1 |  |  |  |  |  |
| MTPLLELKDIRRSYPAGDEQVEVLKGISLDIYAGEMVAIVGASGSGKSTLMNILGCLDKATSGTYRVAGQDVATLDADALAQLRREHFGFIFQRYHLLSHLTAEQNVEVPAVYAGLERKQRLLRAQELLQRLGLEDRTEYYPAQLSGGQQQRVSIARALMNGGQVILADEPTGALDSHSGEEVMAILHQLRDRGHTVIIVTHDPQVAAQAERVIEIRDGEIVRNPPAIEKVNVTGGTEPVVNTVSGWRQFVSGFNEALTMAWRALAANKMRTLLTMLGIIIGIASVVSIVVVGDAAKQMVLADIRSIGTNTIDVYPGKDFGDDDPQYQQALKYDDLIAIQKQPWVASATPAVSQNLRLRYNNVDVAASANGVSGDYFNVYGMTFSEGNTFNQEQLNGRAQVVVLDSNTRRQLFPHKADVVGEVILVGNMPARVIGVAEEKQSMFGSSKVLRVWLPYSTMSGRVMGQSWLNSITVRVKEGFDSAEAEQQLTRLLSLRHGKKDFFTWNMDGVLKTVEKTTRTLQLFLTLVAVISLVVGGIGVMNIMLVSVTERTREIGIRMAVGARASDVLQQFLIEAVLVCLVGGALGITLSLLIAFTLQLFLPGWEIGFSPLALLLAFLCSTVTGILFGWLPARNAARLDPVDALARE | 6.72 ± 0.55 | 6.57 ± 0.25 | 6.77 ± 0.99 | 6.57 ± 1.3 | 5.95 ± 0.35 | 3.15 ± 0.084 | 5.92 ± 0.28 | 12.4 ± 0.29 | 6.2 ± 0.35 | 12.6 ± 0.13 | 6.45 ± 0.26 | 11.9 ± 0.64 |
| MKILIVEDDTLLLQGLILAAQTEGYACDSVTTARMAEQSLEAGHYSLVVLDLGLPDEDGLHFLARIRQKKYTLPVLILTARDTLTDKIAGLDVGADDYLVKPFALEELHARIRALLRRHNNQGESELIVGNLTLNMGRRQVWMGGEELILTPKEYALLSRLMLKAGSPVHREILYNDIYNWDNEPSTNTLEVHIHNLRDKVGKARIRTVRGFGYMLVANEEN | 6.35 ± 0.76 | 5.04 ± 0.91 | 4.7 ± 0.14 | 4.71 ± 0.34 | 3.93 ± 0.24 |  | 5.33 ± 0.18 | 9.36 ± 0.56 | 5.55 ± 1.2 | 7.56 ± 0.27 | 4.89 ± 0.26 | 9.22 ± 0.027 |
| MTNNPLIPQSKLPQLGTTIFTQMSALAQQHQAINLSQGFPDFDGPRYLQERLAHHVAQGANQYAPMTGVQALREAIAQKTERLYGYQPDADSDITVTAGATEALYAAITALVRNGDEVICFDPSYDSYAPAIALSGGIVKRMALQPPHFRVDWQEFAALLSERTRLVILNTPHNPSATVWQQADFAALWQAIAGHEIFVISDEVYEHINFSQQGHASVLAHPQLRERAVAVSSFGKTYHMTGWKVGYCVAPAPISAEIRKVHQYLTFSVNTPAQLALADMLRAEPEHYLALPDFYRQKRDILVNALNESRLEILPCEGTYFLLVDYSAVSTLDDVEFCQWLTQEHGVAAIPLSVFCADPFPHKLIRLCFAKKESTLLAAAERLRQL | 2.63 ± 0.15 | 1.93 ± 0.071 | 1.69 ± 0.11 | 2.09 | 2.01 ± 0.052 | 2.48 ± 0.11 | 3.9 ± 0.38 | 5.92 ± 0.72 | 1.95 |  | 5.33 ± 1.2 | 8.16 ± 1 |
| MNDIAHNLAQVRDKISAAATRCGRSPEEITLLAVSKTKPASAIAEAIDAGQRQFGENYVQEGVDKIRHFQELGVTGLEWHFIGPLQSNKSRLVAEHFDWCHTIDRLRIATRLNDQRPAELPPLNVLIQINISDENSKSGIQLAELDELAAAVAELPRLRLRGLMAIPAPESEYVRQFEVARQMAVAFAGLKTRYPHIDTLSLGMSDDMEAAIAAGSTMVRIGTAIFGARDYSKK | 4.54 ± 0.38 | 5.38 ± 2.8 | 4.27 ± 0.37 | 5.68 ± 1.1 | 4.24 ± 0.45 | 3.39 ± 0.11 | 5.71 ± 0.17 | 8.8 ± 1 | 4.33 ± 0.43 | 7.53 ± 0.85 | 5.95 ± 0.28 | 11.1 ± 0.35 |
